Assay results published in patent US20100310509A1 (published 2010).

Tests used:
[1] = molecular target: T1, gp130 bound LIF (gp130:LIF) (human, UniProt P40189 23-619; P15018 23-202); experiment: ELISA, gp130 coated and loaded with LIF, soluble OSMR titrated, anti-OSMR detection, O.D at 450 nm
T1 construct: Non-covalent complex formed on the plate: gp130 coated, then saturating cytokine; also called LIF with gp130

[2] = molecular target: T2, gp130 bound OSM-WT (gp130:OSM-WT) (human, UniProt P40189 23-619); experiment: ELISA, apparent KD (KD,App), gp130 coated, saturating cytokine, soluble OSMR titrated (with gp130)
T2 construct: extracellular domain; Non-covalent complex formed on the plate: gp130 coated, then 200 nM OSM-WT; also called OSM-WT with gp130; not shown: N-terminal FLAG tag
T2 sequence 1: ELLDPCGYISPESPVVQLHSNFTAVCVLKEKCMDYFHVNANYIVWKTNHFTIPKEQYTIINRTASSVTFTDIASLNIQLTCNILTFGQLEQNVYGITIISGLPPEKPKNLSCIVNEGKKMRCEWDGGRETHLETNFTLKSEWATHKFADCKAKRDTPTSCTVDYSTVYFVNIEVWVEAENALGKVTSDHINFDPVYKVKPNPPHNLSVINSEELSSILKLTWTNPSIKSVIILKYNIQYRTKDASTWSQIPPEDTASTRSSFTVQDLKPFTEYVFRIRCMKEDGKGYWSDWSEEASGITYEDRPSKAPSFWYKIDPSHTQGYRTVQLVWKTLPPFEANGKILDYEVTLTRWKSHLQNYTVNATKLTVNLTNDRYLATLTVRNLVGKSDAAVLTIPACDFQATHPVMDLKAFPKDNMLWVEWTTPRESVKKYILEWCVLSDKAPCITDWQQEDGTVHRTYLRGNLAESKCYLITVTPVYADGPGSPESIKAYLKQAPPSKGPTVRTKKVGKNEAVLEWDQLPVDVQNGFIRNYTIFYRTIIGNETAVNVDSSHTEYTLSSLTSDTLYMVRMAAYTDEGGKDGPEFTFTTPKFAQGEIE
T2 sequence 2: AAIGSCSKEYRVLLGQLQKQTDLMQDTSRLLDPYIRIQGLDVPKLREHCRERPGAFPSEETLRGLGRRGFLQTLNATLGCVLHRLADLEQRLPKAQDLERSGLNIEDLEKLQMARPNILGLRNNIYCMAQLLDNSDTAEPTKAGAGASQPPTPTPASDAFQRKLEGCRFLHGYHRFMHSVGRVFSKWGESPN
Procedure: (§1) FIG. 13 graphically depicts an ELISA analysis of soluble OSMR and soluble LIFR binding with LIF, OSM-WT, OSM-M1 and OSM-M2 or gp130 bound LIF (gp130:LIF), OSM-WT (gp130:OSM-WT), OSM-M1 (gp130:OSM-M1) and OSM-M2 (gp130:OSM-M2). Cytokines (LIF, OSM-WT, OSM-M1 or OSM-M2) immobilized on an ELISA plate in the absence (A,C) or presence (B,D) of gp130 were treated with various concentrations of soluble OSMR (A,B) or soluble LIFR (C,D). Equilibrium KD values were estimated using a non-linear curve fitting to the binding data using GraphPad Prism (Graph Pad Software. LaJolla, Calif.). In addition, see Table 3.
(§2) Enzyme-linked immunosorbent assay (ELISA): ELISA was used to evaluate the equilibrium binding strength of the interaction between the cytokines and their receptors. This technique has traditionally been used as a sensitive method to quantify the binding affinities between two interacting proteins. However, unlike in SPR, ELISA involves immobilization of the proteins on a flat plastic surface driven by hydrophobic and ionic interactions. This might cause some distortion in the 3 dimensional structure of immobilized protein which leads to inaccuracies in the estimation of dissociation constants. It is thus important to bear in mind that the values estimated using this technique are to be used only for comparison between species but not as true equilibrium binding constants. The results obtained using this technique will thus be presented as apparent equilibrium dissociation constants (K_{D,App}). For direct interaction studies, cytokines (LIF, OSM-WT, OSM-M1 or OSM-M2) were immobilized on the 96 well ELISA plate by incubating the wells with 200 μl of 5 nM cytokine solution in PBS, pH 7.4 overnight at 4° C. The wells were then blocked with blocking buffer (4% BSA in PBS) for 1 hour at room temperature. […]

[3] = molecular target: T3, gp130 bound OSM-M1 (gp130:OSM-M1) (human, UniProt P40189 23-619); experiment: as above
T3 construct: extracellular domain; Non-covalent complex formed on the plate: gp130 coated, then 200 nM OSM-M1; also called OSM-M1 with gp130; not shown: N-terminal FLAG tag
T3 sequence 1: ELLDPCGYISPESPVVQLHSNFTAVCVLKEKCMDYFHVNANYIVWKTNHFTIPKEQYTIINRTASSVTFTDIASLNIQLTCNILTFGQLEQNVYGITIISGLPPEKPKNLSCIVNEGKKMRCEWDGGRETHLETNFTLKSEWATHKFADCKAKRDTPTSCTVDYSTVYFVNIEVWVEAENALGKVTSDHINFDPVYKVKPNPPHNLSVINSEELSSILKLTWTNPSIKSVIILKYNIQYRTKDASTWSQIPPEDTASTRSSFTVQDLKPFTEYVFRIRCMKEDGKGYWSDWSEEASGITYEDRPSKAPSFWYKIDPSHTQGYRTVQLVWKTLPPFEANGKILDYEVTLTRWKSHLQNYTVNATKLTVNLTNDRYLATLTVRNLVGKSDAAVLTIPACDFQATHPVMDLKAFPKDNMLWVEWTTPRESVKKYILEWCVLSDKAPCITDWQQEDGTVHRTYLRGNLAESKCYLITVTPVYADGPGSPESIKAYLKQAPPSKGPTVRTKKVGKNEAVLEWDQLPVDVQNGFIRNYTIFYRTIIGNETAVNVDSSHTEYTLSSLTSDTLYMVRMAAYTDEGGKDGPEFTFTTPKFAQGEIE
T3 sequence 2: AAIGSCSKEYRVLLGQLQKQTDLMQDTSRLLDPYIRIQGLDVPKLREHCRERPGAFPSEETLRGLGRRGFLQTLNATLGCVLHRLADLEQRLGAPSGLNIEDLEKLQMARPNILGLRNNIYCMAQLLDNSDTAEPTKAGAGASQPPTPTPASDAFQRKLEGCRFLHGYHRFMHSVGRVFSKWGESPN
Procedure: as §1, §2

[4] = molecular target: T4, gp130 bound OSM-M2 (gp130:OSM-M2) (human, UniProt P40189 23-619); experiment: as above
T4 construct: extracellular domain; Non-covalent complex formed on the plate: gp130 coated, then 200 nM OSM-M2; also called OSM-M2 with gp130; not shown: N-terminal FLAG tag
T4 sequence 1: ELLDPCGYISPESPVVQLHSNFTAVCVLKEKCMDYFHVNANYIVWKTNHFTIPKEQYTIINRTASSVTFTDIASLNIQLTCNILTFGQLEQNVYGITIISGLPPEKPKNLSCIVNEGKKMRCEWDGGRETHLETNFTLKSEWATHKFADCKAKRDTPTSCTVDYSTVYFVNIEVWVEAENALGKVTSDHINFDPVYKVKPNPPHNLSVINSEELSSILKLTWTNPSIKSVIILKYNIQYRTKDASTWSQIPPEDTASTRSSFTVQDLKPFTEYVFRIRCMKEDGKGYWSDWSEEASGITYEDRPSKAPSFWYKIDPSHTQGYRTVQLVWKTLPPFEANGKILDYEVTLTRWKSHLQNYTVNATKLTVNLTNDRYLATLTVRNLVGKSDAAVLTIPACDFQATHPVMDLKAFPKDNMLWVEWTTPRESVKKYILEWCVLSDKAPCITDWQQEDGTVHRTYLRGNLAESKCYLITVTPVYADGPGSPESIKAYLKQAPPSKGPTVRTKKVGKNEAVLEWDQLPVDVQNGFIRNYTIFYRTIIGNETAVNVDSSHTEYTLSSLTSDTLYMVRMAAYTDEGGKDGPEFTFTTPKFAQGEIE
T4 sequence 2: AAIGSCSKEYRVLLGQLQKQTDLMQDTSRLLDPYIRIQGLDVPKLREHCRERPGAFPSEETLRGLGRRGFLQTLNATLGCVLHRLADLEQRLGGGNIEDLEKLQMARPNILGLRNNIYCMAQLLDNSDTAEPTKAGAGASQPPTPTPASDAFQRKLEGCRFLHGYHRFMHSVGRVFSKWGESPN
Procedure: as §1, §2

T1 sequence (P15018 23-202 limits assumed, one chain of several): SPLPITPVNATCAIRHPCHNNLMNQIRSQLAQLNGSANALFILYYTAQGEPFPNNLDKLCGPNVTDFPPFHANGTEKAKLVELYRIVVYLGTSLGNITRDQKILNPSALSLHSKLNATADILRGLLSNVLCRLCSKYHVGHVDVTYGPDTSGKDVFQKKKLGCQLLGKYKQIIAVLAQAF

B1: soluble human OSMR (Oncostatin M receptor) (receptor, UniProt Q99650 28-740, looked up)
chain: ERLPLTPVSLKVSTNSTRQSLHLQWTVHNLPYHQELKMVFQIQISRIETSNVIWVGNYSTTVKWNQVLHWSWESELPLECATHFVRIKSLVDDAKFPEPNFWSNWSSWEEVSVQDSTGQDILFVFPKDKLVEEGTNVTICYVSRNIQNNVSCYLEGKQIHGEQLDPHVTAFNLNSVPFIRNKGTNIYCEASQGNVSEGMKGIVLFVSKVLEEPKDFSCETEDFKTLHCTWDPGTDTALGWSKQPSQSYTLFESFSGEKKLCTHKNWCNWQITQDSQETYNFTLIAENYLRKRSVNILFNLTHRVYLMNPFSVNFENVNATNAIMTWKVHSIRNNFTYLCQIELHGEGKMMQYNVSIKVNGEYFLSELEPATEYMARVRCADASHFWKWSEWSGQNFTTLEAAPSEAPDVWRIVSLEPGNHTVTLFWKPLSKLHANGKILFYNVVVENLDKPSSSELHSIPAPANSTKLILDRCSYQICVIANNSVGASPASVIVISADPENKEVEEERIAGTEGGFSLSWKPQPGDVIGYVVDWCDHTQDVLGDFQWKNVGPNTTSTVISTDAFRPGVRYDFRIYGLSTKRIACLLEKKTGYSQELAPSDNPHVLVDTLTSHSFTLSWKDYSTESQPGFIQGYHVYLKSKARQCHPRFEKAVLSDGSECCKYKIDNPEEKALIVDNLKPESFYEFFITPFTSAGEGPSATFTKVTTPDEHSSM
notes: extracellular domain; Bought; also called soluble OSMR
Q: Does B1 bind [1]?
A: no binding (tested: 75 nM)

Q: What about the Kd [2] of the same binder?
A: 10.9 nM

Q: And the Kd [3]?
A: 3.71 nM

Q: What about the Kd [4] of the same binder?
A: 2.19 nM
